Assay results as given in article PMC9482650, “Quantitative fragmentomics allow affinity mapping of interactomes” (Nature Communications, 2022).

Tests used:
Test in all cases: holdup assay
Design in all cases: key: below the threshold = too weak to quantify, mostly under pKd 3.1 to 4
Conditions in all cases: plain residues with an end cap or a label only (N-terminal biotin on a linker: ado-ado)
[1] = target: TJP1_3, Q07157
[2] = target: T1, DLG3_2, Q92796
T1 sequence (Q92796 221-321, limits assumed, looked up): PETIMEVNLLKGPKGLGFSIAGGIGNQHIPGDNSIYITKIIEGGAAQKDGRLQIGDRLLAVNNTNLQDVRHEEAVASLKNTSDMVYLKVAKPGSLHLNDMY

[3] = target: Inadl_10, Q8NI35
[4] = target: AHNAK1, Q09666
[5] = target: FRMPD2_2, Q68DX3
[6] = target: FRMPD2_3, Q68DX3
[7] = target: T2, DFNB31_1, Q9P202
T2 sequence (Q9P202 135-233, limits assumed, looked up): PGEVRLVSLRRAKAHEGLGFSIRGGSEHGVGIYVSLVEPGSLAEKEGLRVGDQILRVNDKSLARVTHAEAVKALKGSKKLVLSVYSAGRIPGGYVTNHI

[8] = target: T3, SNTG2, Q9NY99
T3 sequence (Q9NY99 68-166, limits assumed, looked up): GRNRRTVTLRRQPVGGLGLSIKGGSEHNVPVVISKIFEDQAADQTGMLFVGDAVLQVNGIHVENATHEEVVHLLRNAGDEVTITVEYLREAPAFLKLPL

[9] = target: T4, RADIL, Q96JH8
T4 sequence (Q96JH8 971-1071, limits assumed, looked up): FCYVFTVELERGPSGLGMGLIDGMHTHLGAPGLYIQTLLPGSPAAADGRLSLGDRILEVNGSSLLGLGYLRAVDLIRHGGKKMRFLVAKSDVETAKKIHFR

[10] = target: T5, SNTG1, Q9NSN8
T5 sequence (Q9NSN8 52-150, limits assumed, looked up): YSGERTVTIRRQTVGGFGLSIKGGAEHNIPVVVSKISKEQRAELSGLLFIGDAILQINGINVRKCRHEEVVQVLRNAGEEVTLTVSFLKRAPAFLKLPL

[11] = target: T6, DLG3_1, Q92796
T6 sequence (Q92796 125-227, limits assumed, looked up): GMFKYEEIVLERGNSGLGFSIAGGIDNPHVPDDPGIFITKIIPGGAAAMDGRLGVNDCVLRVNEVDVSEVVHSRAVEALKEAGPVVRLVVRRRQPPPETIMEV

[12] = target: T7, PTPN13_1, Q12923
T7 sequence (Q12923 1088-1188, limits assumed, looked up): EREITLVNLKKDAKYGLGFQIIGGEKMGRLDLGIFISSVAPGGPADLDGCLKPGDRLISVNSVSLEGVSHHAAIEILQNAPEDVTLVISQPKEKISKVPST

[13] = target: MAGI1_2, Q96QZ7
[14] = target: T8, LIN7A, O14910
T8 sequence (O14910 103-200, limits assumed, looked up): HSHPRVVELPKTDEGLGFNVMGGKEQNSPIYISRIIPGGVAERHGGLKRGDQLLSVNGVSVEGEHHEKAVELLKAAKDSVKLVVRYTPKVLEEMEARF

[15] = target: Inadl_9, Q8NI35
[16] = target: PTPN3, P26045
[17] = target: MAGI2_4, Q86UL8
[18] = target: NHERF4_1, Q86UT5-2
[19] = target: Inadl_3, Q8NI35
[20] = target: SCRIB_2, Q14160
[21] = target: LIMK2, P53671
[22] = target: T9, MPDZ_5, O75970
T9 sequence (O75970 695-796, limits assumed, looked up): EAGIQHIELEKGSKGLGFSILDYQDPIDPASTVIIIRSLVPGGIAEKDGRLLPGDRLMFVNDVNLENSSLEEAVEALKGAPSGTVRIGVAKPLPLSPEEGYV

[23] = target: T10, NHERF3_3, Q5T2W1
T10 sequence (Q5T2W1 238-333, limits assumed, looked up): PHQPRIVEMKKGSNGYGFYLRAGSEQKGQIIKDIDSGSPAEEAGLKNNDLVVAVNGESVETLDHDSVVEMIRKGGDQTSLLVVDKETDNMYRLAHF

[24] = target: LNX1_2, Q8TBB1
[25] = target: GORASP2, Q9H8Y8
[26] = target: DLG1_3, Q12959
[27] = target: T11, RHPN1, Q8TCX5
T11 sequence (Q8TCX5 508-602, limits assumed, looked up): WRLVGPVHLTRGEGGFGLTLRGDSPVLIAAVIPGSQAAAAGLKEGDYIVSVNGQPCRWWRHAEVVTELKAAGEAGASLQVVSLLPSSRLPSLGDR

Sequence of MAGI1_2, Q96QZ7 (Q96QZ7 456-580): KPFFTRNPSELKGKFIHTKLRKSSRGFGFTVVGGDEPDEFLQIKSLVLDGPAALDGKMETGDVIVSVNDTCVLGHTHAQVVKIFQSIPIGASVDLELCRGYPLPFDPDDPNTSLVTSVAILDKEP
Sequence of Inadl_9, Q8NI35 (Q8NI35 1530-1615): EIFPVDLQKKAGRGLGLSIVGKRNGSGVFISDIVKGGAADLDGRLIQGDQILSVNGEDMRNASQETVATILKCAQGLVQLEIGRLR
Sequence of PTPN3, P26045 (P26045 505-587): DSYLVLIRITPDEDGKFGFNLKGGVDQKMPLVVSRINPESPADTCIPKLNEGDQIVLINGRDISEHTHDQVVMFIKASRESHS
Sequence of TJP1_3, Q07157 (Q07157 416-512): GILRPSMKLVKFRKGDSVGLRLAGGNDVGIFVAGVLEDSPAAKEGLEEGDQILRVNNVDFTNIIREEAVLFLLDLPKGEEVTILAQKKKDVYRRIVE
Sequence of DLG1_3, Q12959 (Q12959 457-571): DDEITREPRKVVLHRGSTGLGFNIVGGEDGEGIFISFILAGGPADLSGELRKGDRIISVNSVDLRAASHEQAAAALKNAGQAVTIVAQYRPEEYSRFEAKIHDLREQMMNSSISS
Sequence of Inadl_3, Q8NI35 (Q8NI35 359-469): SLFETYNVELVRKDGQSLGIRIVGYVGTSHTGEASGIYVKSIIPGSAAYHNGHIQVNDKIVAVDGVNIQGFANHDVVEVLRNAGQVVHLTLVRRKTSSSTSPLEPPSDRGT
Sequence of FRMPD2_2, Q68DX3 (Q68DX3 944-1038): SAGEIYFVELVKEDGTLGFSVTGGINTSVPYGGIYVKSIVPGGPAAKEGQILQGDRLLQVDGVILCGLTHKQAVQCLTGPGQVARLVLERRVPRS
Sequence of Inadl_10, Q8NI35 (Q8NI35 1673-1763): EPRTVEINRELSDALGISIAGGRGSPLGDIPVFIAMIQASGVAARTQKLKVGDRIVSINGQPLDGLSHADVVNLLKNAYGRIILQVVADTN
Sequence of MAGI2_4, Q86UL8 (Q86UL8 772-865): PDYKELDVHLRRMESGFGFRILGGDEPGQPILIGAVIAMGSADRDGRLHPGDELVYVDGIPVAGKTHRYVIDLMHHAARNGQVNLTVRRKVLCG
Sequence of NHERF4_1, Q86UT5-2 (Q86UT5 other isoform, or with tags, fused parts or gaps): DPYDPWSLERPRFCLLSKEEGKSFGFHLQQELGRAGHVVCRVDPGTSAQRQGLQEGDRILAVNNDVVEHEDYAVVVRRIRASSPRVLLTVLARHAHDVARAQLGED
Sequence of LIMK2, P53671 (P53671 143-248): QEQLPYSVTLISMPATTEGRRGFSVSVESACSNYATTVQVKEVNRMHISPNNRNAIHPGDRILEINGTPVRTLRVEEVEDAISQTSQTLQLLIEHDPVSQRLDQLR
Sequence of AHNAK1, Q09666 (Q09666 4-100): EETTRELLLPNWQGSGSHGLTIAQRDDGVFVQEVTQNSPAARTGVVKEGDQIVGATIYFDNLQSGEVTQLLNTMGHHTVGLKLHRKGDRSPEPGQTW
Sequence of LNX1_2, Q8TBB1 (Q8TBB1 371-470): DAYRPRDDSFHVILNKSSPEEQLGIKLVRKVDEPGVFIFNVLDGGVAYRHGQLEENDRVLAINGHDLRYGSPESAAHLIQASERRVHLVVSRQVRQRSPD
Sequence of FRMPD2_3, Q68DX3 (Q68DX3 1073-1166): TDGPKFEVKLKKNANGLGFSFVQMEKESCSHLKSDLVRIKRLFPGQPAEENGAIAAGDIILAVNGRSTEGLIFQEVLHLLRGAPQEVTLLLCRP
Sequence of SCRIB_2, Q14160 (Q14160 857-960): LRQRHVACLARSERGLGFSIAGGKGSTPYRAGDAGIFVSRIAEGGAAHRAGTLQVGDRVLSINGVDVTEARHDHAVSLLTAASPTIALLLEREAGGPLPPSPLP

B1: MAP7D2, Q96T17 (peptide)
chain: GQETPLNTFC
For B1, the pKd [1] was “below the threshold”, the pKd [2] was 3.93 and the pKd [3] was “below the threshold”. The pKd [4] was “below the threshold”, the pKd [5] was “below the threshold” and the pKd [6] was “below the threshold”. For the same binder, the pKd [7] was “below the threshold”, the pKd [8] was 3.7 and the pKd [9] was “below the threshold”. For the same binder, the pKd [10] was “below the threshold”, the pKd [11] was “below the threshold” and the pKd [12] was “below the threshold”. For the same binder, the pKd [13] was “below the threshold”, the pKd [14] was “below the threshold” and the pKd [15] was “below the threshold”. The pKd [16] was 4.38, the pKd [17] was “below the threshold” and the pKd [18] was 3.6. For the same binder, the pKd [19] was “below the threshold”, the pKd [20] was “below the threshold” and the pKd [21] was “below the threshold”. For the same binder, the pKd [22] was “below the threshold”, the pKd [23] was “below the threshold” and the pKd [24] was “below the threshold”. For the same binder, the pKd [25] was “below the threshold”, the pKd [26] was “below the threshold” and the pKd [27] was “below the threshold”.

B2: JAM3, Q9BX67 (peptide)
chain: DFRHKSSFVI
For B2, the pKd [1] was “below the threshold”, the pKd [2] was 4.16 and the pKd [3] was “below the threshold”. For the same binder, the pKd [4] was “below the threshold”, the pKd [5] was “below the threshold” and the pKd [6] was “below the threshold”. The pKd [7] was “below the threshold”, the pKd [8] was “below the threshold” and the pKd [9] was 3.96. For the same binder, the pKd [10] was “below the threshold”, the pKd [11] was “below the threshold” and the pKd [12] was “below the threshold”. The pKd [13] was “below the threshold”, the pKd [14] was “below the threshold” and the pKd [15] was “below the threshold”. For the same binder, the pKd [16] was 3.84, the pKd [17] was “below the threshold” and the pKd [18] was “below the threshold”. The pKd [19] was 4.26, the pKd [20] was “below the threshold” and the pKd [21] was “below the threshold”. The pKd [22] was “below the threshold”, the pKd [23] was “below the threshold” and the pKd [24] was “below the threshold”. For the same binder, the pKd [25] was 5.21, the pKd [26] was “below the threshold” and the pKd [27] was “below the threshold”.

B3: PKP4, Q99569 (peptide)
chain: QYPGSPDSWV
With B3 the pKd [1] was 3.68, the pKd [2] was 4.13 and the pKd [3] was 3.75. The pKd [4] was 3.51, the pKd [5] was 4.34 and the pKd [6] was “below the threshold”. The pKd [7] was 4.28, the pKd [8] was 3.62 and the pKd [9] was 4.89. For the same binder, the pKd [10] was 4.57, the pKd [11] was 3.97 and the pKd [12] was “below the threshold”. The pKd [13] was 3.48, the pKd [14] was “below the threshold” and the pKd [15] was 3.72. The pKd [16] was 4.96, the pKd [17] was 4.32 and the pKd [18] was 3.57. The pKd [19] was 3.63, the pKd [20] was 4.82 and the pKd [21] was “below the threshold”. The pKd [22] was 3.58, the pKd [23] was “below the threshold” and the pKd [24] was 3.78. The pKd [25] was 4.39, the pKd [26] was “below the threshold” and the pKd [27] was 4.26.

B4: UQCRC2, P22695 (peptide)
chain: LGHTPFVDEL
With B4 the pKd [1] was “below the threshold”, the pKd [2] was 3.48 and the pKd [3] was “below the threshold”. For the same binder, the pKd [4] was “below the threshold”, the pKd [5] was “below the threshold” and the pKd [6] was “below the threshold”. The pKd [7] was 3.5, the pKd [8] was “below the threshold” and the pKd [9] was 3.66. For the same binder, the pKd [10] was “below the threshold”, the pKd [11] was “below the threshold” and the pKd [12] was “below the threshold”. For the same binder, the pKd [13] was “below the threshold”, the pKd [14] was 3.53 and the pKd [15] was “below the threshold”. The pKd [16] was 4.1, the pKd [17] was “below the threshold” and the pKd [18] was 4.2. For the same binder, the pKd [19] was 3.59, the pKd [20] was “below the threshold” and the pKd [21] was “below the threshold”. The pKd [22] was “below the threshold”, the pKd [23] was “below the threshold” and the pKd [24] was “below the threshold”. For the same binder, the pKd [25] was “below the threshold”, the pKd [26] was “below the threshold” and the pKd [27] was “below the threshold”.

B5: FZD8, Q9H461 (peptide)
chain: YPKQMPLSQV
With B5 the pKd [1] was “below the threshold”, the pKd [2] was “below the threshold” and the pKd [3] was “below the threshold”. The pKd [4] was “below the threshold”, the pKd [5] was “below the threshold” and the pKd [6] was “below the threshold”. The pKd [7] was 3.59, the pKd [8] was “below the threshold” and the pKd [9] was 3.7. For the same binder, the pKd [10] was 4.04, the pKd [11] was “below the threshold” and the pKd [12] was “below the threshold”. The pKd [13] was 3.55, the pKd [14] was “below the threshold” and the pKd [15] was “below the threshold”. For the same binder, the pKd [16] was “below the threshold”, the pKd [17] was “below the threshold” and the pKd [18] was “below the threshold”. For the same binder, the pKd [19] was “below the threshold”, the pKd [20] was “below the threshold” and the pKd [21] was “below the threshold”. The pKd [22] was “below the threshold”, the pKd [23] was “below the threshold” and the pKd [24] was “below the threshold”. It also gave a pKd [25] of 3.56, a pKd [26] of 3.64 and a pKd [27] of 4.34.
